{"source": "paper PMC8428573", "biological_target": "SARS-CoV-2 spike protein extracellular domain (residues 14 to 1209, S1 and S2 without the transmembrane domain) (SARS-CoV-2) (UniProt P0DTC2)", "assay": "SEC"}
{"substance": "SARS-CoV-2 spike protein extracellular domain (residues 14 to 1209, S1 and S2 without the transmembrane domain) (from UniProt P0DTC2 14-1209) (domain or fragment)", "values": [{"measurement": "stoichiometry N", "value": 3}]}
